The values that follow come from US20110065633A1, “ESTER-BASED PEPTIDE PRODRUGS” (INDIANA UNIVERSITY RESEARCH AND TECHNOLOGY CORPORATION, priority 2008, published 2011).

In assay [1] the target is glucagon receptor (UniProt P47871). As to the kind of experiment: cell-based or functional assay.
Assay [2] has as its system diabetes-induced obesity (DIO) mice. The assay is described as follows: Blood glucose after glucose injection in DIO mice. Type of assay: in vivo. The settings on record: for blood glucose concentrations compared with vehicle control: 15 or 70 nmol/kg intraperitoneally 60 min before […] glucose, FIG. 15. As for the experimental part: Six groups of diabetes-induced obesity (DIO) mice (eight mice per group) having an initial average body weight of 49.5 g were intraperitoneally injected with 2 nmol/kg of a PBS vehicle control or one of Peptides A-E described below:
Fifteen minutes after injection with one of the compounds or with vehicle control (at time point 0), a 25% (w/v) glucose saline solution was injected at a dose of 1.5 g per kg of body weight. Blood glucose concentrations of the mice were measured at the time of injection of the compound or vehicle control, at the time of glucose injection, and at 15, 30, 60, and 120 minutes after glucose injection.
Blood glucose levels of the mice were measured as described in Example 5.
(§1) Nine groups of diabetes-induced obesity (DIO) mice (8 mice per group) having an initial average body weight of 56 g were intraperitoneally injected once and followed for one week with 15 or 70 nmol/kg of Peptides Y, Z, F-Peg, and G-Peg described below or PBS vehicle control.
Sixty minutes after injection with one of the peptides or with vehicle control (at time point 0), a 25% (w/v) glucose saline solution was injected at a dose of 1.5 g per kg of body weight. Blood glucose concentrations of the mice were measured at the time of injection of the peptide or vehicle control (at time point −60), at the time of glucose injection (at time point 0), and at 15, 30, 60, and 120 minutes after glucose injection.

The test system is the same in assay [3]. The assay is described as follows: Body weight and food intake of DIO mice over one week. Type of assay: in vivo. The note with it: single injection 15 or 70 nmol/kg; for total efficacy as measured over a week study: prodrug versus non-prodrug; for total food intake: FIG. 17. The protocol: as §1
The body weight of each mouse of each group was measured on 1, 3, 5, and 7 days after injection with the vehicle control or peptide. Total change in body weight was calculated by substracting the average body weight of a group at the time of injection with vehicle or peptide from the average body weight of the group seven days after injection. Food intake by each group of mice was measured during the course of the week as well. Total food intake was measured seven days after injection with vehicle control or peptide. […] The Ser11 substitution or the des-amino His7 reduces total efficacy.

For assay [4], the target named is T1, GLP-1 receptor (Homo sapiens, UniProt P43220). As to the kind of experiment: cell-based or functional assay.
Target sequence in this assay (P43220 24-463 limits assumed): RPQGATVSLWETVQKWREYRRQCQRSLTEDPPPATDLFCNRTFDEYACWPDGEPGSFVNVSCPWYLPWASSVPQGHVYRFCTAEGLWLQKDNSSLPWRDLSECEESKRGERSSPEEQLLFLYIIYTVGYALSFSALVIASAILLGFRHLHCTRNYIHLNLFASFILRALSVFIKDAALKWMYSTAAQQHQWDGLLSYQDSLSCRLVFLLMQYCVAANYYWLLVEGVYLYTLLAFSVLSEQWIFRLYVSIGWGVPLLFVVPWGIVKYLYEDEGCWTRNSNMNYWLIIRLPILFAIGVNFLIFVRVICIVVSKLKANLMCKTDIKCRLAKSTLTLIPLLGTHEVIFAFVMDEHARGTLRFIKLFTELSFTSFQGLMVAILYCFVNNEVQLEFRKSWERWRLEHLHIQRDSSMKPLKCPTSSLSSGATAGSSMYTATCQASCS
Assay [5] deals with glucagon receptor (UniProt P47871). As to the kind of experiment: cell-based or functional assay. This is another data set of the same source.
Assay [6] has as its target T1, GLP-1 receptor. As to the kind of experiment: Luciferase-based reporter gene assay for cAMP detection, GLP-1 receptor. The settings on record: for Potency compared with native GLP-1: luciferase assay, in vitro. On the set-up: expressed in transfected cells; host or cells: HEK293. Type of assay: cell-based. In general terms: In a reporter assay the amount or activity of a reporter protein is the signal.
Target sequence in this assay (P43220 24-463, species assumed): as the sequence (P43220 24-463 limits assumed) above

Assay [7] deals with T2, GLP-1 receptor (UniProt P43220 24-463, limits assumed). As to the kind of experiment: cell-based or functional assay.
Assay [8] has as its target glucagon receptor (UniProt P47871 26-477). As to the kind of experiment: cell-based or functional assay.
Assay [9] has as its target T2, GLP-1 receptor. As to the kind of experiment: cell-based or functional assay. This is another data set of the same source.

Where two headings read alike, the source gives them in different places. Bridges are numbered along the chain shown (N, C = ends). Where no end group is shown, it is not given here. Side-chain parts run from the residue outwards. [ ]: non-standard residue; d: D form. The star is where a group is joined. Desaminohistidyl = O=C(CCc1c[nH]cn1)*; PhLac = O=C(O)[C@@H](O)Cc1ccccc1; Aib = CC(C)(N)C(=O)O

Sequence of glucagon receptor (UniProt P47871 26-477) (P47871 26-477 limits assumed): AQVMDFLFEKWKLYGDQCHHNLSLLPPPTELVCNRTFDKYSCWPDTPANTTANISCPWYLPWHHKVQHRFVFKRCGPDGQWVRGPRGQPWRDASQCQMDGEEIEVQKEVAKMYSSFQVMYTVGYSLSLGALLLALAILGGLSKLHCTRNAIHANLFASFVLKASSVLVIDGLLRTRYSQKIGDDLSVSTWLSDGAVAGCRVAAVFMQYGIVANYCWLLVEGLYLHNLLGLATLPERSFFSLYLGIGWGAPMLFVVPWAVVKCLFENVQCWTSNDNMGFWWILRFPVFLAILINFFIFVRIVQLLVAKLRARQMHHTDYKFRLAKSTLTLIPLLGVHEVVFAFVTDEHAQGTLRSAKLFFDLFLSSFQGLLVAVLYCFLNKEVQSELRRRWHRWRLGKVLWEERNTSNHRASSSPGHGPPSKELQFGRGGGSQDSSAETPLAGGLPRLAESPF
Sequence of glucagon receptor (UniProt P47871) (P47871 26-477 limits assumed): as above

Consider “Glucagon (6-CEX) analog [PLA6, E9, E16K20(Lactam)] (peptide)”, for which, in assay [1], the Glucagon IC50 was found to be 20 nM.
With “Peptide G-Peg: pegylated prodrug, d-Phe-d-Val ester-linked to the Ser at position 8 ([Desaminohistidyl]S([dV-dF])EGTFTSDVSSYLEEQAAKEFIC(PEG 40 kDa)WLVKGRPSSGAPPPS-NH2)”, the “blood glucose concentrations compared with vehicle control” value in assay [2] is reported as “less as compared to the blood glucose levels of mice injected with vehicle control”. Further, the “total efficacy as measured over a week study” value in assay [3] is recorded as “comparable”. Further, the total food intake entry in assay [3] (seven days) was “decreased”.
Consider “Glucagon (6-CEX) analog E9, E16K20(lactam) (peptide)”, for which, in assay [1], the Glucagon IC50 was 42 nM. Further, the GLP-1 EC50 in [4] came out at 36 nM. Further, in assay [5], the Glu IC50 was 42 nM.
Turning to “F^7,GLP(8-37): aa 7-37 of GLP-1 with the His at position 7 replaced with Phe (FAEGTFTSDVSSYLEGQAAKEFIAWLVKGRG; Glucagon-like peptide 1(7-37); UniProt P01275 98-128, looked up, variant H7F)”, in assay [6], the Agonist character entry is given as “full agonist”. Moreover, the “potency of native GLP-1” value in assay [6] (percent of the potency of native GLP / GLP-1) was determined as 10%.
Regarding “Glucagon (6-CEX) analog E9, K12E16(lactam) (peptide)”, the Glucagon IC50 in [1] was 2010 nM. The molecule further had a GLP-1 EC50 in assay [4] of 63 nM. In addition, the Glu IC50 in [5] turned out to be 2010 nM.
Take “Glucagon (6-CEX) analog [PLA6, E9, K12E16(Lactam) (peptide)”: in assay [1], the Glucagon IC50 turned out to be 72 nM. In addition, in assay [4], the GLP-1 EC50 worked out at 6 nM. The molecule also showed a Glu IC50 in [5] of 72 nM.
For “Peptide F-Peg: Peptide F analog with Cys at 30 covalently linked to a 40 kDa PEG ([Desaminohistidyl]SEGTFTSDVSSYLEEQAAKEFIC(PEG 40 kDa)WLVKGRPSSGAPPPS-NH2)”, the “blood glucose concentrations compared with vehicle control” value in assay [2] was “less as compared to the blood glucose levels of mice injected with vehicle control”. Further, the “total efficacy as measured over a week study” value in [3] was “comparable”. Moreover, the total food intake result in assay [3] (seven days) is reported as “decreased”.
As for “Glucagon (6-CEX) analog E9, K12, E16 (peptide)”, the Glucagon IC50 in [1] was 762 nM. This molecule gave a Glu IC50 in assay [5] of 762 nM.
With “HO-FAEGTFTSDVSSYLEGQAAKEFIAWLVKGXPSSGAPPPS [HO—F^7,GLP(8-36)-CEX]”, in [6] (Table 7, before incubation (0 hrs), parent drug as such), the “% potency with respect to parent” value is recorded as 100% (parent drug). Besides, the “Potency compared with native GLP-1” value in [6] is listed as “at least as potent as the native GLP-1”.
Consider “Peptide Y: GLP-1 with AIB at 8, Glu at 22, Cys at 30 linked to 40 kDa PEG, Exendin 4 extension (H[Aib]EGTFTSDVSSYLEEQAAKEFIC(PEG 40 kDa)WLVKGRPSSGAPPPS-NH2)”, for which the “blood glucose concentrations compared with vehicle control” value in [2] was “less as compared to the blood glucose levels of mice injected with vehicle control”. For the same molecule, the total food intake result in assay [3] (seven days) is “decreased”. In assay [3] (seven days, FIGS. 16, 17), the “potency in decreasing appetite and decreasing body weight” value was “most potent of the four peptides”.
As to “Peptide Z: pegylated (40 kDa) GLP-1-based prodrug, d-Phe-d-Val ester-linked to Ser at position 11 (H[Aib]EGS([dV-dF])FTSDVSSYLEEQAAKEFIC(PEG 40 kDa)WLVKGRPSSGAPPPS-NH2)”, the “blood glucose concentrations compared with vehicle control” value in assay [2] is recorded as “less as compared to the blood glucose levels of mice injected with vehicle control”. The total food intake result in assay [3] (seven days) is “decreased”.
On to “H^7AEGTFTSDVSSYLEGQAAKEFIAWLVKGXPSSGAPPPS-amide [GLP(7-36)-CEX amide]”, for which the “Potency compared with native GLP-1” value in assay [6] is listed as “approximately ten times more potent in vitro than the native GLP-1 sequence”.
Same read-out and setting: in the case of “HAEGTFTSDVSSYLEGQAAKEFIAWLVKGRGKRNRNNIA [GLP-oxyntomodulin, GLP-oxyntomodulin chimeric peptide]” it was “at least as potent as the native GLP-1 peptide”.
As for “Peptide E: prodrug of Peptide D, d-Phe-d-Val ester-linked to Ser at position 11 (H[Aib]EGS([dV-dF])FTSDVSSYLEEQAAKEFIAWLVKGRPSSGAPPPS-NH2; N-terminus assumed; SMILES CC[C@H](C)[C@H](NC(=O)[C@H](Cc1ccccc1)NC(=O)[C@H](CCC(=O)O)NC(=O)[C@H](CCCCN)NC(=O)[C@H](C)NC(=O)[C@H](C)NC(=O)[C@H](CCC(N)=O)NC(=O)[C@H](CCC(=O)O)NC(=O)[C@H](CCC(=O)O)NC(=O)[C@H](CC(C)C)NC(=O)[C@H](Cc1ccc(O)cc1)NC(=O)[C@H](CO)NC(=O)[C@H](CO)NC(=O)[C@@H](NC(=O)[C@H](CC(=O)O)NC(=O)[C@H](CO)NC(=O)[C@@H](NC(=O)[C@H](Cc1ccccc1)NC(=O)[C@H](COC(=O)[C@H](NC(=O)[C@H](N)Cc1ccccc1)C(C)C)NC(=O)CNC(=O)[C@H](CCC(=O)O)NC(=O)C(C)(C)NC(=O)[C@@H](N)Cc1c[nH]cn1)[C@@H](C)O)C(C)C)C(=O)N[C@@H](C)C(=O)N[C@@H](Cc1c[nH]c2ccccc12)C(=O)N[C@@H](CC(C)C)C(=O)N[C@H](C(=O)N[C@@H](CCCCN)C(=O)NCC(=O)N[C@@H](CCCNC(=N)N)C(=O)N1CCC[C@H]1C(=O)N[C@@H](CO)C(=O)N[C@@H](CO)C(=O)NCC(=O)N[C@@H](C)C(=O)N1CCC[C@H]1C(=O)N1CCC[C@H]1C(=O)N1CCC[C@H]1C(=O)N[C@@H](CO)C(N)=O)C(C)C)”, in assay [2] (2 nmol/kg intraperitoneally 15 min before […] glucose, FIGS. 12, 13), the “blood glucose after glucose injection compared with corresponding non-prodrug form” value is “higher than the blood glucose levels of mice injected with the corresponding non-prodrug forms”.
With FTSDYSKYLDSRRAQDFVQWLMDT (residue 1 (position 6) is phenyl lactic acid (PLA), written here as F) [PLA 6, D9, D28], in assay [7], the “GLP-1 EC50” value was approximately 700 nM.
On to [PhLac]TSDYSKYLDERRAKDFVQWLMDT-NH2 (lactam 11-15) [[PLA6, D9, E16K20(lactam), D28]G(6-29)], for which the “Glucagon IC50” value in assay [8] is 10 to 30 nM. Further, in assay [7], the “GLP-1 EC50” value amounted to 4 nM.

B1: [PLA6, D9, E16, E24K28(lactam), D28]G(6-29) (peptide)
peptide: [PhLac]TSDYSKYLDERRAQDFVEWLMKT-NH2
modifications: lactam 19-23; N-terminus assumed
SMILES: CSCC[C@@H]1NC(=O)[C@H](CC(C)C)NC(=O)[C@H](Cc2c[nH]c3ccccc23)NC(=O)[C@@H](NC(=O)[C@@H](NC(=O)[C@H](Cc2ccccc2)NC(=O)[C@H](CC(=O)O)NC(=O)[C@H](CCC(N)=O)NC(=O)[C@H](C)NC(=O)[C@H](CCCNC(=N)N)NC(=O)[C@H](CCCNC(=N)N)NC(=O)[C@H](CCC(=O)O)NC(=O)[C@H](CC(=O)O)NC(=O)[C@H](CC(C)C)NC(=O)[C@H](Cc2ccc(O)cc2)NC(=O)[C@H](CCCCN)NC(=O)[C@H](CO)NC(=O)[C@H](Cc2ccc(O)cc2)NC(=O)[C@H](CC(=O)O)NC(=O)[C@H](CO)NC(=O)[C@@H](NC(=O)[C@@H](O)Cc2ccccc2)[C@@H](C)O)C(C)C)CCC(=O)NCCCC[C@@H](C(=O)N[C@H](C(N)=O)[C@@H](C)O)NC1=O
B1: the “GLP-1 EC50” value in assay [9] was determined as 289 nM. Moreover, in assay [8], the “Glucagon IC50” value was found to be 22 nM.
With HSQGTFTSDYARYLDARRAREFIKWLVRGRG [ANK2 (Bayer peptide)], the “GLP-1 EC50” value in assay [9] turned out to be 0.28 nM.

B2: [E9, E16K20(lactam), D28]G(4-29) (peptide)
peptide: GTFTSEYSKYLDERRAKDFVQWLMDT-NH2
modifications: lactam 13-17; N-terminus assumed
SMILES: CSCC[C@H](NC(=O)[C@H](CC(C)C)NC(=O)[C@H](Cc1c[nH]c2ccccc12)NC(=O)[C@H](CCC(N)=O)NC(=O)[C@@H](NC(=O)[C@H](Cc1ccccc1)NC(=O)[C@H](CC(=O)O)NC(=O)[C@@H]1CCCCNC(=O)CC[C@H](NC(=O)[C@H](CC(=O)O)NC(=O)[C@H](CC(C)C)NC(=O)[C@H](Cc2ccc(O)cc2)NC(=O)[C@H](CCCCN)NC(=O)[C@H](CO)NC(=O)[C@H](Cc2ccc(O)cc2)NC(=O)[C@H](CCC(=O)O)NC(=O)[C@H](CO)NC(=O)[C@@H](NC(=O)[C@H](Cc2ccccc2)NC(=O)[C@@H](NC(=O)CN)[C@@H](C)O)[C@@H](C)O)C(=O)N[C@@H](CCCNC(=N)N)C(=O)N[C@@H](CCCNC(=N)N)C(=O)N[C@@H](C)C(=O)N1)C(C)C)C(=O)N[C@@H](CC(=O)O)C(=O)N[C@H](C(N)=O)[C@@H](C)O
As to B2, the “GLP-1 EC50” value in [9] worked out at 151 nM. Besides, the “Glucagon IC50” value in [8] was 10 to 30 nM.
